# Source: US8129349B2, “Treatment of disease by inducing cell apoptosis” (The Regents of the University of California, priority 2000, dated 2012)
# B1: C/EBPβ-Glu^217: modified murine C/EBPβ with mutation of Thr^217 to glutamic acid (SEQ ID NO:4), phosphorylation mimic (protein, listed as Mus musculus)
# chain: MHRLLAWDAACLPPPPAAFRPMEVANFYYEPDCLAYGAKAARAAPRAPAAEPAIGEHERAIDFSPYLEPLAPAADFAAPAPAHHDFLSDLFADDYGAKPSKKPADYGYVSLGRAGAKAAPPACFPPPPPAALKAEPGFEPADCKRADDAPAMAAGFPFALRAYLGYQATPSGSSGSLSTSSSSSPPGTPSPADAKAAPAACFAGPPAAPAKAKAKKZVDKLSDEYKMRRERNNIAVRKSRDKAKMRNLETQHKVLELTAENERLQKKVEQLSRELSTLRNLFKQLPEPLLASAGHC
# Tested on: hepatic stellate cells
# Test: Apoptosis of activated stellate cells transfected with C/EBPβ constructs, annexin-V-PE binding
# Type: cell-based, mouse
# Conditions: apoptosis induced by dominant negative MEKK1, IκBα or RSK mutants or by lactacystin
# Source text: FIG. 1 provides data showing that phosphorylation of C/EBPβ on Thr^217 is required for hepatic stellate cell survival. Panel A provides phosphopeptide maps of in vivo labeled endogenous C/EBPβ in day-4 quiescent and activated primary mouse stellate cells cultured from the time of isolation on EHS or collagen type I matrix, respectively. The arrow indicates the peptide containing Phospho-Thr^217 in activated cells. […] Panel B provides phosphopeptide maps of in vitro labeled C/EPBβ. Active p90RSK phosphorylated C/EPBβ, but not C/EBPβ-Ala^217 on Thr^217 in vitro (arrowheads). Panel C provides results for cells cultured on collagen type I transfected with MSV-C/EBPβ antisense (AS), MSV-C/EBPβ sense (S), or MSV-C/EBPβ-Ala^217 together with CMV-GFP (green fluorescent protein) and p90RSK (1 μg each), as indicated in the Figure. Four hours after transfection, annexin-V-PE binding to plasma membranes was determined. The values presented are the percentage of transfected cells (green) that were annexin-V-PE (+) (red) (P<0.05 for C/EBPβ AS, and C/EBPβ-Ala^217). Panel D provides results for cells transfected as in […] with vectors expressing dominant negative mutants for MEKK1, IκBα, or p90RSK, or treated with the proteasome inhibitor lactacystin (10 μM) (closed bars), and co-transfected with MSV-C/EBPβ-Glu^217 (1 μg each) (open bars) as indicated. Annexin-V-PE binding was determined as described for Panel A (P<0.05 for C/EBPβ-Glu^217). Panel E provides results for cells transfected as described for Panel C, with a dominant-negative p90RSK, treated with FAS (100 nM for 6 hours) or cultured in a serum-free medium for 6 hours (closed bars), and co-transfected with MSV-C/EBPβ-Glu^217 (1 μg each) (open bars), as indicated. Cell death was determined by nuclear staining with Hoechst 33342 (P<0.05 for C/EBPβ-Glu^217 in RSK mut and FAS-treated cells).
# FIG. 4 provides results showing that C/EBPβ PThr^217 associates with procaspases 1 and 8, and inhibits their activation. Panel A provides schematic representations of C/EBPβ peptides. The activation (dotted bars), DNA binding (solid bars) and dimerization (hatched bars) domains are shown. […] Panel C provides results showing that C/EBPβ and procaspase 8 were detected in activated stellate cells isolated from C/EBPβ^+/+ mice by confocal microscopy using specific antibodies (Santa Cruz Biotechnology). Control C/EBPβ^−/− stellate cells were negative for C/EBPβ, positive for procaspase 8, and apoptotic. Panel D provides immunoblot results for MSV vectors expressing C/EBPβ-HA (hemagglutinin protein) peptides (0.3 μg) transfected into activated stellate cells. The expressed peptides were immunoprecipitated with anti-HA antibodies. C/EBPβ-PThr^217 was detected using a specific antibody, only in cells expressing wild-type C/EBPβ. […] RSK was associated with all C/EBPβ peptides. Neither C/EBPβ nor procaspases 1 and 8 were detected in C/EBPβ immunoprecipitates from cells expressing C/EBPβ AS. Reciprocal immunoprecipitations of procaspases and RSK confirmed these associations.
# Adult male Sprague-Dawley rats and adult male C/EBPβ^+/+ and C/EBPβ^−/− (Screpanti et al., supra; and Buck et al., (1999), supra), C/EBPβ-Ala^217 and C/EBPβ-Asp^105 transgenic mice were used for the isolation of primary hepatic stellate cells (Houglum et al., supra). Primary hepatic stellate cells were isolated by collagenase/pronase perfusion and purified by a single step density Nycodenz gradient (Accurate Chemical & Scientific) as known in the art (See, Lee et al., (1995), supra). Cells were plated on type I collagen matrix (Becton Dickinson) or EHS matrix (Matrigel, Collaborative Biomedical Products). Cells were cultured with 10% fetal calf serum/10% fetal bovine serum and transfected with lipofectamine (GIBCO) for DNA vectors or with the Chariot reagent (Active Motif) for peptides (10 μM) as known in the art (See, Houglum et al., supra; and Morris et al., J. Biol. Chem., 274:24942-24946 (1999)). […]
molecule,measurement,value
B1,Rescue from induced apoptosis by expressed construct,partially inhibited
